Data: patent publication US20200079850A1 (SUTRO BIOPHARMA, published 2020)

Molecular target: T1, hLAG3 (Acro Biosystems), SPR analyte (human, UniProt P18627 23-450)
T1 construct: also called human LAG3 kinetics
T1 sequence: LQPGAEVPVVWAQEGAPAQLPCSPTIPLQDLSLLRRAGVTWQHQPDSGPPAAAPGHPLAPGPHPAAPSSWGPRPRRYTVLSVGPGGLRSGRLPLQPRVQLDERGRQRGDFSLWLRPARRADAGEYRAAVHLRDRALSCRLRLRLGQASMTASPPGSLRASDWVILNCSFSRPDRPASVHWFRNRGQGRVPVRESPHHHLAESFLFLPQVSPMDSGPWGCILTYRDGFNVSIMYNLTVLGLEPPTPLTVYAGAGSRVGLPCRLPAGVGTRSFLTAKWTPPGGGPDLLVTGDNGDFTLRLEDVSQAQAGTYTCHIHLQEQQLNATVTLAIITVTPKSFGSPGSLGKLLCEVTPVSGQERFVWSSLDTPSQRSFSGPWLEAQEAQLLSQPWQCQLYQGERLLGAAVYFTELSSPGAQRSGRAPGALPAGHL
Assay: SPR (Biacore), antibody captured by anti-Fc, hLAG3 as analyte, 25 C
Experimental: Anti-Fc polyclonal antibodies were immobilized onto a CMS chip (GE Life Sciences) using amine coupling chemistry (from Amine Coupling Kit, GE Life Sciences). The immobilization steps were carried out at a flow rate of 25 μl/min in 1×HBS-EP+buffer (GE Life Sciences; 10× Stock diluted before use). The sensor surfaces were activated for 7 min with a mixture of NHS (0.05 M) and EDC (0.2 M). The Anti-Fc antibodies were injected over all 4 flow cells at a concentration of 25 ug/ml in 10 mM sodium acetate, pH 4.5, for 7 min. Ethanolamine (1 M, pH 8.5) was injected for 7 min to block any remaining activated groups. An average of 12,000 response units (RU) of capture antibody was immobilized on each flow cell.
Kinetic binding experiments were performed at 25° C. using 1×HBS-EP+buffer. Test and control antibodies were injected over the anti-Fc surface at concentrations of 5-10 μg/mL for 12 seconds at a flow rate of 10 μl/min on flow cells 2, 3 and 4, followed by a buffer wash for 30 seconds at the same flow rate. Kinetic characterization of antibody samples was carried out with a dilution series of antigen and 1 injection of 0 nM antigen. After capturing ligand (antibody) on the anti-Fc surface, the analyte (hPD1 or hLAG3, Acro Biosystems, Newark, Del.) was bound at 100, 25, 6.25 and 0 nM for 180 seconds, followed by a 450 second dissociation phase at a flow rate of 50 μl/min. Between each ligand capture and analyte binding cycle, regeneration was carried out using 2 injections of 10 mM Glycine pH 2.0 for 30 seconds at 30 μL/min, followed by a 30 second buffer wash step.
The data was fit with the Biacore T200 Evaluation software, using a 1:1 Langmuir binding model. KD (affinity, nM) was determined as a ratio of the kinetic rate constants calculated from the fits of the association and dissociation phases.

B1: PD-1/LAG3 Bi-specific Construct B: aPD1 1353-G10 scFvFc zwB R28T/P30D/H31S V262E; aLAG3 1449-G09.2 Fab zwA V262E (bispecific antibody, human IgG1, kappa)
scFv: EVQLVQSGAEVKKPGASVKVSCKASGYTFDSYGISWVRQAPGQGLEWMGWISAYNGNTNYAQKLQGRVTMTTDTSTNTAYMELRSLRSDDTAVYYCARDVDYGTGSGYWGQGTLVTVSSGGGGSGGGGSGGGGSSYELTQPPSVSVSPGQTARITCSGDALPKQYAYWYQQKPGQAPVMVIYKDTERPSGIPERFSGSSSGTKVTLTISGVQAEDEADYYCQSADNSITYRVFGGGTKVTVLAAGSDQEPKSSDKTHTCPPCPAPELLGGPSVFLFPPKPKDTLMISRTPEVTCEVVDVSHEDPEVKFNWYVDGVEVHNAKTKPREEQYNSTYRVVSVLTVLHQDWLNGKEYKCKVSNKALPAPIEKTISKAKGQPREPQVYVLPPSREEMTKNQVSLLCLVKGFYPSDIAVEWESNGQPENNYLTWPPVLDSDGSFFLYSKLTVDKSRWQQGNVFSCSVMHEALHNHYTQKSLSLSPGK
heavy: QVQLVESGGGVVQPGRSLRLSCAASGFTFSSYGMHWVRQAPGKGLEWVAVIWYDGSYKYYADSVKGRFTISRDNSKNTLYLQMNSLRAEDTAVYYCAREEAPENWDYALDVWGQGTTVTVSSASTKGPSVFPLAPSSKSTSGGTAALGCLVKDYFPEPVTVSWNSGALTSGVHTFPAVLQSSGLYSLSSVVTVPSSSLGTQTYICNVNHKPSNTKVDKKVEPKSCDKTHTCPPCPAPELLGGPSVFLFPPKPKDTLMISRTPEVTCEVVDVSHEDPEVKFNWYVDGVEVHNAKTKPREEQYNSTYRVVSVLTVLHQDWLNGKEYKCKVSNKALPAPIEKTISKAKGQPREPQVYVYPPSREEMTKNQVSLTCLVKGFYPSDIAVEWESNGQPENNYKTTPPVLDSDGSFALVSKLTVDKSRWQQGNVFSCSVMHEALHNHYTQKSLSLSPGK
light: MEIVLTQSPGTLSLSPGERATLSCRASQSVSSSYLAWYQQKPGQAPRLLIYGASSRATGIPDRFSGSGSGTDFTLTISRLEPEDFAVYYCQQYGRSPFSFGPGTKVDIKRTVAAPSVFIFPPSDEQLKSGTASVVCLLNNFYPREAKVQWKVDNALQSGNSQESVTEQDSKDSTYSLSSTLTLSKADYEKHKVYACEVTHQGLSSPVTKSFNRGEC
notes: The N-terminal Met is not included
B1 showed a Kd of 0.0944 nM, a koff of 0.000138 s⁻¹ and a kon of 1.46e+06 M⁻¹ s⁻¹.

B2: PD-1/LAG3 Bi-specific Construct C: aPD1 1353-G10 Vk1-39LC scFvFc zwB V262E; aLAG3 1449-G09.2 Fab zwA V262E (bispecific antibody, human IgG1, kappa)
scFv: EVQLVQSGAEVKKPGASVKVSCKASGYRFPHYGISWVRQAPGQGLEWMGWISAYNGNTNYAQKLQGRVTMTTDTSTNTAYMELRSLRSDDTAVYYCARDVDYGTGSGYWGQGTLVTVSSGGGGSGGGGSGGGGSDIQLTQSPSSLSASVGDRVTITCSGDALPKQYAYWYQQKPGKAPKLLIYKDTERPSGVPSRFSGSSSGTKVTLTISSLQPEDFATYYCQSADNSITYRVFGGGTKVEIKAAGSDQEPKSSDKTHTCPPCPAPELLGGPSVFLFPPKPKDTLMISRTPEVTCEVVDVSHEDPEVKFNWYVDGVEVHNAKTKPREEQYNSTYRVVSVLTVLHQDWLNGKEYKCKVSNKALPAPIEKTISKAKGQPREPQVYVLPPSREEMTKNQVSLLCLVKGFYPSDIAVEWESNGQPENNYLTWPPVLDSDGSFFLYSKLTVDKSRWQQGNVFSCSVMHEALHNHYTQKSLSLSPGK
heavy: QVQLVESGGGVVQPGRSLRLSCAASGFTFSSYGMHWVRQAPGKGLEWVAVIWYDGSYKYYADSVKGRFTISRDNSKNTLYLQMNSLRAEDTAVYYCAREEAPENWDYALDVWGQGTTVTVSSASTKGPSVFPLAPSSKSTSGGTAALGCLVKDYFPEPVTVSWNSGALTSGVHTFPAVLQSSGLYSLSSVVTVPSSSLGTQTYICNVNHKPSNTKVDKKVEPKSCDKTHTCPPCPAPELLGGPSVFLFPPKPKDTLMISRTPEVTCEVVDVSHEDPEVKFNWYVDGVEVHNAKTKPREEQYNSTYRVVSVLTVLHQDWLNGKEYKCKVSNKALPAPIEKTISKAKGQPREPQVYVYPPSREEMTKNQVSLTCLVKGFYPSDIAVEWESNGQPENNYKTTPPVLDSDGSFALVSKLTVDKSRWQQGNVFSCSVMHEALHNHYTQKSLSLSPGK
light: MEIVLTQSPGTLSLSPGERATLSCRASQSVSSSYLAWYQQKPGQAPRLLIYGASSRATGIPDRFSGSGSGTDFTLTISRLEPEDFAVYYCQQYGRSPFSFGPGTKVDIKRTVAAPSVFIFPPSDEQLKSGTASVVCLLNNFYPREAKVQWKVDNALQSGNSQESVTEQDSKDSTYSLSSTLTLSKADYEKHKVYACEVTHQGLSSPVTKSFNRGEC
notes: as for B1
B2 was tested, and the Kd was 0.519 nM, the koff was 0.000694 s⁻¹ and the kon was 1.34e+06 M⁻¹ s⁻¹.
